According to patent US20170158761A1 (EWHA UNIVERSITY INDUSTRY COLLABORATION FOUNDATION, published 2017):
Where no end group is shown, it is not given here.

Target: T1, Δ-dTCTP (FL deleted dimer TCTP) (Pan troglodytes (Chimpanzee), UniProt A5A6K2 1-172, disulfide bridge between the C-terminal cysteines (Cys172) of the two chains)
T1 construct: also called A-dTCTP; dimer form of FL domain-deleted TCTP
T1 sequence: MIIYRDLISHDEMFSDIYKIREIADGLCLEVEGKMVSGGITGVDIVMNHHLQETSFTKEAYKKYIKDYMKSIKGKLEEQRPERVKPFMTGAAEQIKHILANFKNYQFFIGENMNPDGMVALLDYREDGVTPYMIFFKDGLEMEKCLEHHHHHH
Assay: ELISA: biotinylated dTBP2 (0.01 to 10 µM) on streptavidin plate, TCTP protein at 0.2 µg/ml, anti-HRF rabbit antibody detection
Protocol: To investigate the affinity to dTBP2 of f-TCTP, Δ-dTCTP, and Del-N11dTCTP of the present invention, biotin was conjugated to the COOH-terminus of dTBP2 known to bind to HRF, followed by purification. The purified protein was immobilized in the plastic well coated with streptavidin, to which f-TCTP, Δ-dTCTP, and Del-N11dTCTP were added. Then, the binding strength of each protein was investigated.
Particularly, 50 μL of the biotinylated dTBTP2 dissolved in a buffer (TBS [25 mM Tris, 150 mM NaCl, pH 7.2], 0.1% BSA, 0.05% Tween-20) at different concentrations of […] was added to Reacti-Bind Streptavidin Coated Polystyrene Plates (PIERCE), followed by reaction at room temperature for 2 hours. The plate was washed with a washing buffer three times. Each of f-TCTP, Δ-dTCTP, and Del-N11dTCTP was dissolved in TBS at the concentration of 0.2 μg/ml. 60 μl of the mixture was added to each well of the plate, followed by reaction for 1 hour. The plate was washed with a washing buffer three times. 100 μl of anti-HRF rabbit antibody (Bio-Rad) diluted in a buffer (1:2000) was added to each well of the plate, which stood at room temperature for 30 minutes. […] Color development was measured at 450 nm and 570 nm using an ELISA reader (Bio-Rad), and affinity was determined by the difference.

B1: biotinylated dTBP2 (dTCTP binding peptide 2) (peptide)
peptide: WYVYPSM-biotin
notes: also called biotinylated dTBTP2
binding result: binds
